Measurements published in the supplement of paper PMC11811203.

B1: THAP1; numbered along this chain (parent)
chain: MVQSCSAYGCKNRYDKDKPVSFHKFPLTRPSLCKEWEAAVRRKNFKPTKYSSICSEHFTPDCFKRECNNKLLKENAVPTIFLCTEPHDKKEDLLEPQEQLPPPPLPPPVSQVDAAIGLLMPPLQTPVNLSVFCDHNYTVEDTMHQRKRIHQLEQQVEKLRKKLKTAQQRCRRQERQLEKLKEVVHFQKEKDDVSERGYVILPNDYFEIVEVPA

Variants of: B1
Experiment: THAP1 transcriptional activity (GFP+/GFP- enrichment relative to wild-type constructs) (ratio to WT); higher = more THAP1 activity (PSMB5 reporter activation)
Details: with PSMB5 promoter-GFP reporter
Outline: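 A site-saturation library of human THAP1 (residues 2–213, each changed to all 20 amino acids) was transduced by lentivirus at MOI ~0.3, in duplicate, into THAP1-knockout HEK-293T cells carrying mClover3 knocked in at endogenous PSMB5. After five days, BFP+ cells were sorted into GFP-dim and GFP-bright bins, and variants were counted by Illumina sequencing of genomic DNA amplicons. Activity is the replicate-mean bright/dim read fold change divided by the mean of wild-type synonymous constructs.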

Going from I208Y to I208P, the THAP1 transcriptional activity falls from 1.14 to 0.675.

First: I208C
Second: I208E
The THAP1 transcriptional activity of the first is lower: 1.06 for the first, 1.41 for the second.

First: I208Q
Second: I208N
The THAP1 transcriptional activity of the first is lower: 0.835 for the first, 0.926 for the second.

Going from I208V to I208M, the THAP1 transcriptional activity rises from 1.2 to 1.25.

Compared with I208S, I208D is lower in THAP1 transcriptional activity: 1.17 for the first, 0.924 for the second.

Going from I208G to I208K, the THAP1 transcriptional activity falls from 0.803 to 0.59.

Compared with I208W, I208R is lower in THAP1 transcriptional activity: 0.755 for the first, 0.751 for the second.

Going from I208F to P212F, the THAP1 transcriptional activity falls from 0.98 to 0.548.

First: P212S
Second: P212V
The THAP1 transcriptional activity of the first is lower: 1.34 for the first, 1.99 for the second.

Going from P212N to P212Y, the THAP1 transcriptional activity rises from 1.15 to 1.42.

Going from P212L to P212I, the THAP1 transcriptional activity rises from 1.42 to 1.75.

Going from P212E to P212M, the THAP1 transcriptional activity rises from 0.535 to 1.4.

First: P212D
Second: P212W
The THAP1 transcriptional activity of the first is lower: 0.943 for the first, 0.968 for the second.

First: P212G
Second: P212R
The THAP1 transcriptional activity of the first is higher: 0.939 for the first, 0.594 for the second.

Compared with P212C, P212Q is higher in THAP1 transcriptional activity: 0.673 for the first, 1.45 for the second.

Going from P212H to P212K, the THAP1 transcriptional activity falls from 2.31 to 0.974.

Going from E210P to E210C, the THAP1 transcriptional activity rises from 0.35 to 1.03.

Going from E210T to E210Q, the THAP1 transcriptional activity rises from 1.08 to 1.15.

First: E210D
Second: E210L
The THAP1 transcriptional activity of the first is higher: 1.07 for the first, 0.744 for the second.

Compared with E210Y, E210M is lower in THAP1 transcriptional activity: 1.39 for the first, 0.913 for the second.

Compared with E210F, E210W is lower in THAP1 transcriptional activity: 0.823 for the first, 0.686 for the second.

Going from E210V to E210I, the THAP1 transcriptional activity rises from 1.06 to 1.23.

Going from E210A to E210R, the THAP1 transcriptional activity rises from 0.354 to 0.747.

Going from E210G to E210S, the THAP1 transcriptional activity falls from 0.666 to 0.594.

Going from A213N to A213F, the THAP1 transcriptional activity falls from 1.27 to 0.655.

Going from A213D to A213E, the THAP1 transcriptional activity rises from 0.729 to 0.81.

Going from A213I to A213K, the THAP1 transcriptional activity rises from 0.974 to 1.13.

Compared with A213Y, A213G is lower in THAP1 transcriptional activity: 0.711 for the first, 0.677 for the second.

Going from A213V to A213Q, the THAP1 transcriptional activity rises from 0.455 to 1.25.

Going from A213R to A213H, the THAP1 transcriptional activity falls from 0.843 to 0.644.

Going from A213L to A213M, the THAP1 transcriptional activity rises from 0.907 to 0.984.

Compared with A213C, A213W is lower in THAP1 transcriptional activity: 0.884 for the first, 0.538 for the second.

First: V211P
Second: V211N
The THAP1 transcriptional activity of the first is lower: 0.462 for the first, 0.965 for the second.

Going from V211C to V211F, the THAP1 transcriptional activity rises from 0.988 to 1.01.

First: V211T
Second: V211W
The THAP1 transcriptional activity of the first is higher: 0.876 for the first, 0.56 for the second.

Going from V211H to V211R, the THAP1 transcriptional activity falls from 1.29 to 0.811.

Compared with V211G, V211S is higher in THAP1 transcriptional activity: 0.936 for the first, 1.03 for the second.

First: V211I
Second: V211Y
The THAP1 transcriptional activity of the first is higher: 1.34 for the first, 0.843 for the second.

Compared with V211L, V209K is lower in THAP1 transcriptional activity: 1.38 for the first, 0.98 for the second.

First: V209I
Second: V209L
The THAP1 transcriptional activity of the first is higher: 0.823 for the first, 0.773 for the second.

Going from V209T to V209R, the THAP1 transcriptional activity rises from 0.765 to 0.953.

Compared with V209W, V209C is lower in THAP1 transcriptional activity: 0.757 for the first, 0.679 for the second.

First: V209F
Second: V209Q
The THAP1 transcriptional activity of the first is lower: 0.531 for the first, 1.67 for the second.

Compared with V209D, V209M is higher in THAP1 transcriptional activity: 0.517 for the first, 0.587 for the second.

Going from V209P to V209H, the THAP1 transcriptional activity rises from 0.814 to 0.835.

Compared with V209N, V209E is lower in THAP1 transcriptional activity: 0.716 for the first, 0.612 for the second.

Going from V209Y to V209S, the THAP1 transcriptional activity falls from 0.755 to 0.634.
